The values that follow come from patent publication US20220112288A1 (published 2022).

Residue numbers refer to the chain shown, from its start.

B1: 75110_06C16A (antibody, V domains shown)
VH: QVQLQESGPGLVTPSETLSLSCTVSGGSISDYYWSWIRQPGGKGLEWIGRIYSSGSTNYNPSLKSRVTMSVDTSKNQFSLKLSSVTAADTAVYFCARDREDYYYYGMDVWGQGTTVTVSS
VL: DIQMTQSPSSLSASVGDRVTITCQASHDISNYLNWYQQKPGKAPKLLIYAASNLETGVPSRFSGSGSGTDFSFTISSLQPEDIATYYCQQYDHLPLTFGGGTKVEIK
notes: Tested as non-clonal AlivaMab Mouse Kappa hybridoma supernatant (detected with anti-mouse Fc gamma and anti-human kappa)
B2: 75110_08D24A (antibody, V domains shown)
VH: B1 VH with T13K, S21T, D31G, Y32F, G41A, S53T, G55E, S56N, F94Y, D101G
VL: B1 VL with H27Q, S72T, H93S, L96I, G100Q, K103R, V104L
notes: as for B1
B3: 75110_06G04A (antibody, V domains shown)
VH: QVQLLESGPGLVKPSETLSLTCTVSGGSISSYYWSWIRQPAGKGLEWIGRIYISGSTNYNPSLKSRVTMSIDTSENQFSLNLSSVTAADTAVYYCARELERPYYYGMDVWGQGTTVTVSS
VL: B1 VL with H27Q, A50N, N53T, S72T, H93N, I106F
notes: as for B1
B4: 75110_06K03A (antibody, V domains shown)
VH: B3 VH with L5Q, S31T, Y52N, I53T, N58T, I71V, E75K, N81K, P102Y
VL: B1 VL with H27Q, A50Y, N53I, S72T, H93S
notes: as for B1
B5: 75110_07N04A (antibody, V domains shown)
VH: QVQLQESGPGLVKPSETLSLTCSVSGVSSTSFYWSWIRQPAGKGLDWIGRIYTSGSTNYNPSLKSRVTMSVDTSKNQFSLKLSSVTAADTAVYYCARDPGYSDAFAIWGQGTMVTVSS
VL: not shown
notes: as for B1
B6: 75110_08F20A (antibody, V domains shown)
VH: QVQLQESGPGLVKPSETLSLTCSVSGGSISTYYWSWIRQPAGKGLEWIGRICTTENTNYNPSLKSRVTMSIDSSKNQFSLKLSSVTAADTAVYYCARDLERLNYYGMDVWGQGATVTVSS
VL: DIQMTQSPSSLSASVGDRVTITCQASQDISKYLNWYQQKPGIAPKLLIYDASNLETGVPSRFSGSGSGTDFTFTISSLQPEDFATYYCQQYDSLPITFGQGTRLEIK
notes: as for B1
B7: 75110_08G08A (antibody, V domains shown)
VH: B6 VH
VL: B6 VL with K31N, F83I
notes: as for B1
B8: 75110_07J02A (antibody, V domains shown)
VH: EVQLVESGGGLVQPGGSLRLSCAASGFTFSSYWMSWVRQAPGKGLEWVANIKEDGSEKYYVDSVKGRFTISRDNAKNSLYLQMNSLRAEDTAVYYCARDGSYSGYGMDVWGQGTTVTVSS
VL: AIQMTQSPSSLSASVGDRVTITCRASQGIRNDLGWYQQKPGKAPKLLIYAASSLQSGVPSRFSGRGSGTDFALTISSLQPEDFATYYCLLDYNYPYTFGQGTRLEIK
notes: as for B1

In the first assay the target is T1, human CD4 on cells (SKW3 cells; human PBMCs) (human, UniProt P01730 26-458).
T1 construct: whole, on cells; SKW3 CD4 knockout cells served as the negative cell line in the primary screen; also called hCD4; huCD4
In words: FACS confirmation, supernatant on human PBMCs.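 Further: flow cytometry with hybridoma supernatants incubated on human PBMCs for 30 min at 4 °C.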
On to B1, for which the “PBMCs CD4+ gate RL1 binding, anti-mFc 647” value (“PBMCs CD4+ gate RL1 binding” for short) amounted to 297000 and the “PBMCs CD4+ percent bound of viable” value was determined as 28%.

For the molecule B2, the “PBMCs CD4+ gate RL1 binding” value is 278000 and the “PBMCs CD4+ percent bound of viable” value is 30%.

For B3, the “PBMCs CD4+ gate RL1 binding” value amounted to 240000 and the “PBMCs CD4+ percent bound of viable” value was 30%.

For the molecule B4, the “PBMCs CD4+ gate RL1 binding” value came to 296000 and the “PBMCs CD4+ percent bound of viable” value stood at 32%.

Take B5: the “PBMCs CD4+ gate RL1 binding” value was determined as 344000 and the “PBMCs CD4+ percent bound of viable” value amounted to 30%.

For the molecule B6, the “PBMCs CD4+ gate RL1 binding” value came out at 253000 and the “PBMCs CD4+ percent bound of viable” value is 32%.

In the case of B7, the “PBMCs CD4+ gate RL1 binding” value is 314000 and the “PBMCs CD4+ percent bound of viable” value was determined as 30%.

In the case of B8, the “PBMCs CD4+ gate RL1 binding” value came to 89200 and the “PBMCs CD4+ percent bound of viable” value was 27%.

Another assay has as its target T1, human CD4 on cells (SKW3 cells; human …). In words: FACS confirmation, supernatant on SKW3 cells; background gMFI 2500.
Regarding B1, the “gMFI on SKW3 WT, anti-hu Kappa FITC” value worked out at 4660 gMFI.

On to B2, for which the “gMFI on SKW3 WT, anti-hu Kappa FITC” value turned out to be 3570 gMFI.

As for B3, the “gMFI on SKW3 WT, anti-hu Kappa FITC” value was 8480 gMFI.

On to B4, for which the “gMFI on SKW3 WT, anti-hu Kappa FITC” value was determined as 8640 gMFI.

As to B5, the “gMFI on SKW3 WT, anti-hu Kappa FITC” value turned out to be 6230 gMFI.

Take B6: the “gMFI on SKW3 WT, anti-hu Kappa FITC” value was determined as 6170 gMFI.

Regarding B7, the “gMFI on SKW3 WT, anti-hu Kappa FITC” value was determined as 5840 gMFI.

Consider B8, for which the “gMFI on SKW3 WT, anti-hu Kappa FITC” value turned out to be 3980 gMFI.

The target is the same in another assay. In words: FACS confirmation, supernatant on SKW3 cells; background gMFI 3300.
For B1, the “gMFI on SKW3 WT, anti-mFc 647” value was determined as 12100 gMFI.

As for B2, the “gMFI on SKW3 WT, anti-mFc 647” value worked out at 20100 gMFI.

With B3, the “gMFI on SKW3 WT, anti-mFc 647” value was 33700 gMFI.

For B4, the “gMFI on SKW3 WT, anti-mFc 647” value was determined as 33600 gMFI.

Turning to B5, the “gMFI on SKW3 WT, anti-mFc 647” value turned out to be 30400 gMFI.

As for B6, the “gMFI on SKW3 WT, anti-mFc 647” value came out at 31500 gMFI.

Consider B7, for which the “gMFI on SKW3 WT, anti-mFc 647” value is 19400 gMFI.

B8: the “gMFI on SKW3 WT, anti-mFc 647” value stood at 13400 gMFI.

The target is the same in another assay. In words: FACS primary screen, hybridoma supernatant, SKW3 vs SKW3 CD4 KO cells.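 Further: flow cytometry on mixed SKW3 and dye-labeled SKW3 CD4 knockout cells after 30 min at 4 °C with supernatant, ratio of binding signal on parental versus knockout cells.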
With B1, the “SKW3 WT vs KO ratio, anti-hKappa-FITC” value turned out to be 1.9 and the “SKW3 WT vs KO ratio, anti-mFc-647” value amounted to 5.

B2: the “SKW3 WT vs KO ratio, anti-hKappa-FITC” value was determined as 1.1 and the “SKW3 WT vs KO ratio, anti-mFc-647” value worked out at 4.1.

Regarding B3, the “SKW3 WT vs KO ratio, anti-hKappa-FITC” value amounted to 3.3 and the “SKW3 WT vs KO ratio, anti-mFc-647” value is 9.3.

On to B4, for which the “SKW3 WT vs KO ratio, anti-hKappa-FITC” value is 2.7 and the “SKW3 WT vs KO ratio, anti-mFc-647” value worked out at 7.5.

As to B5, the “SKW3 WT vs KO ratio, anti-hKappa-FITC” value came out at 2.8 and the “SKW3 WT vs KO ratio, anti-mFc-647” value worked out at 7.8.

Take B6: the “SKW3 WT vs KO ratio, anti-hKappa-FITC” value amounted to 1.7 and the “SKW3 WT vs KO ratio, anti-mFc-647” value is 3.1.

As to B7, the “SKW3 WT vs KO ratio, anti-hKappa-FITC” value was 2.4 and the “SKW3 WT vs KO ratio, anti-mFc-647” value turned out to be 5.7.

B8: the “SKW3 WT vs KO ratio, anti-hKappa-FITC” value was 1.3 and the “SKW3 WT vs KO ratio, anti-mFc-647” value worked out at 2.3.

For a further assay the target is unchanged. In words: FACS binning on SKW3 cells; competitor OKT4a; background 5000, max binding 35000.
In the case of B1, the “OKT4a signal (anti-hu A647) with supernatant” value (“OKT4a signal (anti-hu A647)” for short) came out at 36800.

Consider B2, for which the “OKT4a signal (anti-hu A647)” value is 42500.

On to B3, for which the “OKT4a signal (anti-hu A647)” value is 30800.

For B4, the “OKT4a signal (anti-hu A647)” value worked out at 33200.

Regarding B5, the “OKT4a signal (anti-hu A647)” value was 36100.

Regarding B6, the “OKT4a signal (anti-hu A647)” value came out at 44800.

B7: the “OKT4a signal (anti-hu A647)” value was 38400.

As to B8, the “OKT4a signal (anti-hu A647)” value was 38000.

The next assay has the same target. In words: FACS binning on SKW3 cells; competitor OKT4-A488; background 2163, max binding 8200.
Take B1: the “OKT4-A488 signal with supernatant” value is 8240.

Turning to B2, the “OKT4-A488 signal with supernatant” value was 7930.

Turning to B3, the “OKT4-A488 signal with supernatant” value came to 9310.

As for B4, the “OKT4-A488 signal with supernatant” value came to 9140.

With B5, the “OKT4-A488 signal with supernatant” value stood at 9010.

In the case of B6, the “OKT4-A488 signal with supernatant” value worked out at 7410.

Turning to B7, the “OKT4-A488 signal with supernatant” value came out at 8890.

Regarding B8, the “OKT4-A488 signal with supernatant” value turned out to be 8050.

For another assay the target is unchanged. In words: FACS binning on SKW3 cells; competitor RPA-T4-PE-Dazzle 594; background 783, max binding 15000.
In the case of B1, the “RPA-T4-PE-Dazzle 594 signal with supernatant” value (“RPA-T4-PE-Dazzle 594 signal” below) was 15600.

As for B2, the “RPA-T4-PE-Dazzle 594 signal” value amounted to 14600.

B3: the “RPA-T4-PE-Dazzle 594 signal” value came to 16600.

In the case of B4, the “RPA-T4-PE-Dazzle 594 signal” value was 15800.

In the case of B5, the “RPA-T4-PE-Dazzle 594 signal” value is 15500.

In the case of B6, the “RPA-T4-PE-Dazzle 594 signal” value came out at 15500.

In the case of B7, the “RPA-T4-PE-Dazzle 594 signal” value is 16200.

Regarding B8, the “RPA-T4-PE-Dazzle 594 signal” value is 15900.

For a further assay, the target named is T2, huCD4-HIS (human, UniProt P01730 26-390, limits assumed).
T2 construct: the ELISA is not described in the text of this stretch; also called human CD4-HIS
In words: ELISA binning; competitor ibalizumab; 100 ng/mL huCD4-HIS, anti-HIS HRP; background 45, max binding 3000000. (An ELISA detects its analyte on a solid surface through an enzyme-linked reagent.)
Take B1: the “Ibalizumab ELISA binning signal” value was determined as 1.35e+06.

Take B2: the “Ibalizumab ELISA binning signal” value was determined as 887000.

With B3, the “Ibalizumab ELISA binning signal” value was determined as 1.96e+06.

In the case of B4, the “Ibalizumab ELISA binning signal” value was determined as 1.65e+06.

For the molecule B5, the “Ibalizumab ELISA binning signal” value came out at 1.66e+06.

Take B6: the “Ibalizumab ELISA binning signal” value was 1.41e+06.

For the molecule B7, the “Ibalizumab ELISA binning signal” value worked out at 1.69e+06.

As to B8, the “Ibalizumab ELISA binning signal” value is 1.98e+06.
